Where two headings read alike, the source gives them in different places.

Assay [1] addresses T1, human plasma kallikrein (active form) (human, UniProt P03952 20-638).
The target in assay [2] is T1, human plasma kallikrein (active form). The assay can be described thus: cell-based or functional assay.

T1 sequence (P03952 20-638 limits assumed): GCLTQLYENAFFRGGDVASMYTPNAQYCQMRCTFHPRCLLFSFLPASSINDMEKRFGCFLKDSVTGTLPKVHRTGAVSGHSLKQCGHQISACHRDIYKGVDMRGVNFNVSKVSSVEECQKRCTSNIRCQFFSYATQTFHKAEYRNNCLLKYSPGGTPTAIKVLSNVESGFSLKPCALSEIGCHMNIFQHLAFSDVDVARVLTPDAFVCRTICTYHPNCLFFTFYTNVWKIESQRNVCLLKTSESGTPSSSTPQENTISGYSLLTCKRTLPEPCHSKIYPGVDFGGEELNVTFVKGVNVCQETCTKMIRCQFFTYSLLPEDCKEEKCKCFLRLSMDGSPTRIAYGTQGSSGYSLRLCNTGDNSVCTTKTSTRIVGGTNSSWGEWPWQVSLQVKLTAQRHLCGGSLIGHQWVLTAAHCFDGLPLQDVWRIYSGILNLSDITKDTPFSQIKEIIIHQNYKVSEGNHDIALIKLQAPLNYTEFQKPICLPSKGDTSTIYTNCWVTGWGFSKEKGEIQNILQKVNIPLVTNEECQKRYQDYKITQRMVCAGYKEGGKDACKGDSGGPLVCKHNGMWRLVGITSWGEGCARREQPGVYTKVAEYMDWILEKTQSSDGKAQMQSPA

For ecallantide (designed binder), in assay [1], the IC50 (read off the curve) was found to be 70 nM.

B1: DX-2930 (antibody, human IgG1, kappa, V domains shown)
VH: EVQLLESGGGLVQPGGSLRLSCAASGFTFSHYIMMWVRQAPGKGLEWVSGIYSSGGITVYADSVKGRFTISRDNSKNTLYLQMNSLRAEDTAVYYCAYRRIGVPRRDEFDIWGQGTMVTVSS
VL: DIQMTQSPSTLSASVGDRVTITCRASQSISSWLAWYQQKPGKAPKLLIYKASTLESGVPSRFSGSGSGTEFTLTISSLQPDDFATYYCQQYNTYWTFGQGTKVEIKR
As to B1, the “IC50 (read off the curve)” value in assay [2] is roughly 70 nM.
